The assay has as its target IL-1 receptor (human) (UniProt P14778). Kind of assay: cell-based or functional assay.

Consider 1 substance from patent US20110177065A1.

UniProt P14778, sequence (P14778 18-569): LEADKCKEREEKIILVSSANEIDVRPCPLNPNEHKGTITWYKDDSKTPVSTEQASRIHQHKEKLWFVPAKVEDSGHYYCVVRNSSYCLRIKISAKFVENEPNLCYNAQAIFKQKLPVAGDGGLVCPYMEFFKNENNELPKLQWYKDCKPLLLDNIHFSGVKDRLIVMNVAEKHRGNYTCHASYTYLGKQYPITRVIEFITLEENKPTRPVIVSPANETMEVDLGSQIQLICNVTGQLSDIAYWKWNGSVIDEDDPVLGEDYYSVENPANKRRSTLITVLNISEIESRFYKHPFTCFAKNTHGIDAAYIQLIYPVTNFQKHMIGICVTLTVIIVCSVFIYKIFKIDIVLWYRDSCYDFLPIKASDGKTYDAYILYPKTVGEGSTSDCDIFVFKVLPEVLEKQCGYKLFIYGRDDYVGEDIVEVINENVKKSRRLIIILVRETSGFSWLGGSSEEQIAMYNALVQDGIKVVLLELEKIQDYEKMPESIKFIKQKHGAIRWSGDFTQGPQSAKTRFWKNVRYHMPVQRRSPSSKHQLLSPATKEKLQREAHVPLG

The substance “IL-1 receptor antagonist (IL-1Ra) (from UniProt P18510 26-177) (ligand)” had an antiviral activity of IFN-gamma (endpoint of 50% protection from viral cytopathic effect, human WISH cells) of 125 IU/ml and a level of IL-18BP in HaCat culture supernatants after IFN-gamma (ELISA) of 0.35 ng/mL.
